Reference: paper PMC5041027 (Membranes, 2016)

Molecular target: Bacillus anthracis protective antigen, 63 kDa activated form (PA63), as ion channels in a tethered b (B. anthracis, UniProt P13423)
Assay: SPR
Conditions: both partners purified

Chain of Bacillus anthracis protective antigen, 63 kDa activated form (PA63), as ion channels in a tethered b (P13423 197-764): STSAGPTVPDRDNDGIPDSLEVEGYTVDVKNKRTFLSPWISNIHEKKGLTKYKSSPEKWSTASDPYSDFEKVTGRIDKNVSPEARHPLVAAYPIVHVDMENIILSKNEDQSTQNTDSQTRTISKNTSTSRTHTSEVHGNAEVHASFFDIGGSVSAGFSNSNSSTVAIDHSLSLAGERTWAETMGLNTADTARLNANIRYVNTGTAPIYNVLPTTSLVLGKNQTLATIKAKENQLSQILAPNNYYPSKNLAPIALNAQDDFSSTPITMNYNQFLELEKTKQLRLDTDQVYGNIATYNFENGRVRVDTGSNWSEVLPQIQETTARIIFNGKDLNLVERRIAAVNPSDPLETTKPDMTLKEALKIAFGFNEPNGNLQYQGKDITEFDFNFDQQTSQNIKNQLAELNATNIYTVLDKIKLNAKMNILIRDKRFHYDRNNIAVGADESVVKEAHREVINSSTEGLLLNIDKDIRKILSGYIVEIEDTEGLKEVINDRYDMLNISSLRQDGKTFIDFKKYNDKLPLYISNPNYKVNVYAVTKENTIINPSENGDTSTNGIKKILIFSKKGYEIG

B1: Bacillus anthracis Lethal Factor (natural protein)
chain: AGGHGDVGMHVKEKEKNKDENKRKDEERNKTQEEHLKEIMKHIVKIEVKGEEAVKKEAAEKLLEKVPSDVLEMYKAIGGKIYIVDGDITKHISLEALSEDKKKIKDIYGKDALLHEHYVYAKEGYEPVLVIQSSEDYVENTEKALNVYYEIGKILSRDILSKINQPYQKFLDVLNTIKNASDSDGQDLLFTNQLKEHPTDFSVEFLEQNSNEVQEVFAKAFAYYIEPQHRDVLQLYAPEAFNYMDKFNEQEINLSLEELKDQRMLARYEKWEKIKQHYQHWSDSLSEEGRGLLKKLQIPIEPKKDDIIHSLSQEEKELLKRIQIDSSDFLSTEEKEFLKKLQIDIRDSLSEEEKELLNRIQVDSSNPLSEKEKEFLKKLKLDIQPYDINQRLQDTGGLIDSPSINLDVRKQYKRDIQNIDALLHQSIGSTLYNKIYLYENMNINNLTATLGADLVDSTDNTKINRGIFNEFKKNFKYSISSNYMIVDINERPALDNERLKWRIQLSPDTRAGYLENGKLILQRNIGLEIKDVQIIKQSEKEYIRIDAKVVPKSKIDTKIQEAQLNINQEWNKALGLPKYTKLITFNVHNRYASNIVESAYLILNEWKNNIQSDLIKKVTNYLVDGNGRFVFTDITLPNIAEQYTHQDEIYEQVHSKGLYVPESRSILLHGPSKGVELRNDSEGFIHEFGHAVDDYAGYLLDKNQSDLVTNSKKFIDIFKEEGSNLTSYGRTNEAEFFAEAFRLMHSTDHAERLKVQKNAPKTFQFINDQIKFIINS
In the case of B1, the “stoichiometry N” value is reported as 2 LF molecules per PA63 channel.
